The Human Domainome abundance scans (Beltran et al. 2025)
± gives the uncertainty stated by the source.

Test: abundance fitness (aPCA) (normalised: wild type 0, dead -1); higher = more abundant; growth selection in yeast, the domain comes from the species named
Conditions: Homo sapiens

“E3 ubiquitin-protein ligase NEDD4-like H222Y, Q96PU5” and “E3 ubiquitin-protein ligase NEDD4-like K202A, Q96PU5” are within error of each other in abundance fitness: -0.171 ± 0.11 for the first, -0.185 ± 0.06 for the second.

First: E3 ubiquitin-protein ligase NEDD4-like K202C, Q96PU5
Second: E3 ubiquitin-protein ligase NEDD4-like K202D, Q96PU5
The abundance fitness of the first is higher: -0.253 ± 0.097 for the first, -0.491 ± 0.064 for the second.

“E3 ubiquitin-protein ligase NEDD4-like K202E, Q96PU5” and “E3 ubiquitin-protein ligase NEDD4-like K202F, Q96PU5” are within error of each other in abundance fitness: -0.295 ± 0.095 for the first, -0.49 ± 0.11 for the second.

First: E3 ubiquitin-protein ligase NEDD4-like K202G, Q96PU5
Second: E3 ubiquitin-protein ligase NEDD4-like K202H, Q96PU5
The abundance fitness of the first is lower: -0.482 ± 0.06 for the first, -0.173 ± 0.078 for the second.

“E3 ubiquitin-protein ligase NEDD4-like K202I, Q96PU5” and “E3 ubiquitin-protein ligase NEDD4-like K202L, Q96PU5” are within error of each other in abundance fitness: -0.193 ± 0.13 for the first, -0.205 ± 0.074 for the second.

Compared with “E3 ubiquitin-protein ligase NEDD4-like K202M, Q96PU5”, “E3 ubiquitin-protein ligase NEDD4-like K202N, Q96PU5” is higher in abundance fitness: -0.496 ± 0.1 for the first, -0.01 ± 0.11 for the second.

First: E3 ubiquitin-protein ligase NEDD4-like K202P, Q96PU5
Second: E3 ubiquitin-protein ligase NEDD4-like K202Q, Q96PU5
The abundance fitness of the first is lower: -0.814 ± 0.12 for the first, -0.252 ± 0.096 for the second.

“E3 ubiquitin-protein ligase NEDD4-like K202R, Q96PU5” and “E3 ubiquitin-protein ligase NEDD4-like K202T, Q96PU5” are within error of each other in abundance fitness: -0.216 ± 0.062 for the first, -0.308 ± 0.083 for the second.

Going from “E3 ubiquitin-protein ligase NEDD4-like K202V, Q96PU5” to “E3 ubiquitin-protein ligase NEDD4-like K202W, Q96PU5”, the abundance fitness falls from -0.408 ± 0.059 to -0.838 ± 0.089.

“E3 ubiquitin-protein ligase NEDD4-like K202Y, Q96PU5” and “E3 ubiquitin-protein ligase NEDD4-like L190A, Q96PU5” are within error of each other in abundance fitness: -0.289 ± 0.11 for the first, -0.186 ± 0.075 for the second.

“E3 ubiquitin-protein ligase NEDD4-like L190C, Q96PU5” and “E3 ubiquitin-protein ligase NEDD4-like L190D, Q96PU5” are within error of each other in abundance fitness: 0.09 ± 0.076 for the first, 0.066 ± 0.1 for the second.

First: E3 ubiquitin-protein ligase NEDD4-like L190F, Q96PU5
Second: E3 ubiquitin-protein ligase NEDD4-like L190G, Q96PU5
The abundance fitness of the first is higher: 0.051 ± 0.095 for the first, -0.178 ± 0.059 for the second.

Going from “E3 ubiquitin-protein ligase NEDD4-like L190H, Q96PU5” to “E3 ubiquitin-protein ligase NEDD4-like L190I, Q96PU5”, the abundance fitness rises from -0.141 ± 0.11 to 0.125 ± 0.1.

Going from “E3 ubiquitin-protein ligase NEDD4-like L190K, Q96PU5” to “E3 ubiquitin-protein ligase NEDD4-like L190M, Q96PU5”, the abundance fitness falls from 0.08 ± 0.076 to -0.407 ± 0.097.

First: E3 ubiquitin-protein ligase NEDD4-like L190N, Q96PU5
Second: E3 ubiquitin-protein ligase NEDD4-like L190P, Q96PU5
The abundance fitness of the first is higher: -0.031 ± 0.087 for the first, -0.479 ± 0.067 for the second.

First: E3 ubiquitin-protein ligase NEDD4-like L190Q, Q96PU5
Second: E3 ubiquitin-protein ligase NEDD4-like L190R, Q96PU5
The abundance fitness of the first is lower: -0.556 ± 0.13 for the first, -0.024 ± 0.057 for the second.

First: E3 ubiquitin-protein ligase NEDD4-like L190S, Q96PU5
Second: E3 ubiquitin-protein ligase NEDD4-like L190T, Q96PU5
The abundance fitness of the first is higher: -0.02 ± 0.056 for the first, -0.182 ± 0.074 for the second.

Going from “E3 ubiquitin-protein ligase NEDD4-like L190V, Q96PU5” to “E3 ubiquitin-protein ligase NEDD4-like L190W, Q96PU5”, the abundance fitness falls from -0.053 ± 0.053 to -0.503 ± 0.068.

“E3 ubiquitin-protein ligase NEDD4-like L190Y, Q96PU5” and “E3 ubiquitin-protein ligase NEDD4-like L195A, Q96PU5” are within error of each other in abundance fitness: -0.094 ± 0.088 for the first, -0.072 ± 0.22 for the second.

“E3 ubiquitin-protein ligase NEDD4-like L195F, Q96PU5” and “E3 ubiquitin-protein ligase NEDD4-like L195G, Q96PU5” are within error of each other in abundance fitness: -0.902 ± 0.38 for the first, -0.581 ± 0.28 for the second.

“E3 ubiquitin-protein ligase NEDD4-like L195S, Q96PU5” and “E3 ubiquitin-protein ligase NEDD4-like L195V, Q96PU5” are within error of each other in abundance fitness: -0.182 ± 0.33 for the first, 0.143 ± 0.17 for the second.

“E3 ubiquitin-protein ligase NEDD4-like L206A, Q96PU5” and “E3 ubiquitin-protein ligase NEDD4-like L206C, Q96PU5” are within error of each other in abundance fitness: 0.124 ± 0.059 for the first, 0.003 ± 0.09 for the second.

“E3 ubiquitin-protein ligase NEDD4-like L206D, Q96PU5” and “E3 ubiquitin-protein ligase NEDD4-like L206E, Q96PU5” are within error of each other in abundance fitness: 0.015 ± 0.095 for the first, 0.044 ± 0.084 for the second.

With “E3 ubiquitin-protein ligase NEDD4-like L206G, Q96PU5” the abundance fitness was 0.059 ± 0.059.
